Assay results taken from patent publication US20240358813A1.
Like-named read-outs stand apart in the source and are kept apart here.

Key:
[1] = biological target: gp42 wild-type (1-223) (Epstein-Barr virus) (UniProt P03205); experiment: flow cytometry, stable CHO cells kept in 10 µg/ml puromycin, mAb at 1:200, goat anti-mouse IgG Alexa Fluor 488
[2] = biological target: gp350-F: EBV gp350 (1-864) ectodomain fused to the Newcastle disease virus fusion protein (NDV-F) tr (Epstein-Barr virus; Newcastle disease virus) (UniProt P03200)
Sequence of UniProt P03200 (P03200 1-864): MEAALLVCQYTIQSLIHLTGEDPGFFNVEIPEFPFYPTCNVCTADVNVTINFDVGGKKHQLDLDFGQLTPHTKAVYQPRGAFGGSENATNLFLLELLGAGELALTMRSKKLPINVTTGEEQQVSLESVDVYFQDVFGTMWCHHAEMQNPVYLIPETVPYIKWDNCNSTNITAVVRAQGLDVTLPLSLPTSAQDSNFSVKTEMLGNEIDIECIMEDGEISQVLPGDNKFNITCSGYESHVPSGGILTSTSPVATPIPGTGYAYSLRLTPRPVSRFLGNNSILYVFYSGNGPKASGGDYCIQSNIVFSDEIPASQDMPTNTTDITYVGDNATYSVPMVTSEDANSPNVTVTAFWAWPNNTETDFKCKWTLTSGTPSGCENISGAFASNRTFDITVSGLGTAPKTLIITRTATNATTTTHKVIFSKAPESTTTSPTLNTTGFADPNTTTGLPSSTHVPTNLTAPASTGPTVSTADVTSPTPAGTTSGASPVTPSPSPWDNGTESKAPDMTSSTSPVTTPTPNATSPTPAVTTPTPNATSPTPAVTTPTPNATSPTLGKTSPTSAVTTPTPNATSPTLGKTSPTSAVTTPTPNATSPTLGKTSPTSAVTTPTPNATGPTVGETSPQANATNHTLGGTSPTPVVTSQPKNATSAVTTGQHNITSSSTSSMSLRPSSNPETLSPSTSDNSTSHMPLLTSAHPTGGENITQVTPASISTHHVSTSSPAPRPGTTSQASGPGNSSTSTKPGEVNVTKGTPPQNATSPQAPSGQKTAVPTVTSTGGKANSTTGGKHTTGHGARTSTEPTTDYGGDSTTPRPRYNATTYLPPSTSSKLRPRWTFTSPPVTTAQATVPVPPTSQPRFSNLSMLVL

[3] = biological target: gp350-F: EBV gp350 (1-864) ectodomain fused to the Newcastle disease virus fusion protein (NDV-F) tr (Epstein-Barr virus; Newcastle disease virus) (UniProt P03200); experiment: flow cytometry, […], mAb at 1:200, […]
[4] = biological target: gp350-F: EBV gp350 (1-864) ectodomain fused to the Newcastle disease virus fusion protein (NDV-F) tr (Epstein-Barr virus; Newcastle disease virus) (UniProt P03200); remark: listed apart in the source

Sequence of UniProt P03205 (P03205 whole entry, the tested form may be a part): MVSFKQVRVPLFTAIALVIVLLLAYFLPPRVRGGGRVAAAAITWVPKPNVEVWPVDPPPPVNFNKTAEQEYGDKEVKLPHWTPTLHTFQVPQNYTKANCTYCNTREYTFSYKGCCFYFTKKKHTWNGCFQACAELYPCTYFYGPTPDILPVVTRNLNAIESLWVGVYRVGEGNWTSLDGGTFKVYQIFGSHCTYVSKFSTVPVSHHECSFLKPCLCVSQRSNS

anti-gp42 mAb (F-2-1) (antibody) showed a percent positive cells [1] of over 90%.
anti-gp350 mAb 2L10 (antibody) showed a percent positive cells [2] of over 90%.
With “anti-gp350 monoclonal antibody (mAb) 72A1” the percent positive cells [3] was over 90% and the percent positive cells [4] was 95%.
